# Laboratory results from the supplement of paper PMC9170038.
# System: MS2 coat protein
# Assay: apparent KD of MS2 coat protein; designed switch direction (-1 OFF switch, 1 ON switch): -1; higher = weaker reporter binding
# Procedure, shortened: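 Transcription of designed RNA switches on Illumina chips was done by stalled E. coli RNA polymerase. SNAP-549-labelled MS2 coat protein was then titrated in doubling steps from 0.7 or 1.5 nM to 3 µM, with steps of 0.8–1.5 h at the lowest and 10–20 min at the highest concentration. The per-design median over clusters of curve-fitted normalised fluorescence is reported as apparent KD.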
# [1] = Eterna round: R95, input ligand: FMN 200 uM
# [2] = Eterna round: R95, input ligand: microRNA oligo, concentration not stated
# [3] = Eterna round: R95, input ligand: none
# [4] = input ligand: microRNA oligo, concentration not stated
Sequence,apparent KD of MS2 coat protein [1],apparent KD of MS2 coat protein [2],apparent KD of MS2 coat protein [3],apparent KD of MS2 coat protein [4],apparent KD of MS2 coat protein (input ligand: FMN 200 uM),apparent KD of MS2 coat protein (input ligand: none)
AAAAAACAAGGAUAUACGGAUGAAGAGAGUCUUAAUUUUUGACAUGAGGAUCACCCAUGUAGAAGGUGUUAAAA [JR_Exclusion2_Sub017] (puzzle: Exclusion 2),58.9 nM,44.4 nM,50.5 nM,–,–,–
AAAAAACAUGAGGAUCACCCAUGUCAGGAUAUCCGAAAAGAAAAAUAAAAAGAAAAAGGGAGAAGGGACAAAAA [April's ex-date #3] (puzzle: Exclusion 1),45.6 nM,48.6 nM,61.3 nM,–,–,–
AAAAAGAUAGGAUAUACAAUAAAAUAAAAUAAAAUAAAUACACAUGAGGAUCACCCAUGUAGAAGGAUCGAAAA [Exclusion 2 #1] (puzzle: Exclusion 2),26.6 nM,25 nM,31.2 nM,–,–,–
AAAAAGGCAGGAUAUACAUGAGGAUCACCCAUGUGAAAAAACAAAAAAAAAAAAAAAGGUAGAAGGGCCGAAAA [Science Triplets #3] (puzzle: Exclusion 3),22.1 nM,29 nM,27.6 nM,–,–,–
"AAAAAGUCAGGAUAUGCGAAGGCGUCUGAUAGACGAGGCUAGCAGAAGGGACAUGAGGAUCACCCAUGUAAAGA [Mat - Exclusion 4 - D82] (Eterna round: R96, puzzle: Exclusion 4)",–,–,–,19.4 nM,–,–
"AAAAAGUCAGGAUAUGUAGCAAAAGGUGAUCAAAAAAAGCUACAGAAGGGACAUGAGGAUCACCCAUGUAAAAA [Ex4: 937] (Eterna round: R96, puzzle: Exclusion 4)",–,–,–,162 nM,284 nM,183 nM
"AAAACAAACUUUUUGCUCGUCUUAUAUGACGCUCGAGUCACAUGAGGAUCACCCAUGUCUUCCUGUUUGAUAGUUGA [JR_SV3TOV2_Sub055] (puzzle: Sensor v3, turn-off variant 2)",113 nM,113 nM,142 nM,–,–,–
"AAAACGUGAGGAUAUCCAAUAUAUGACAUGAGGAUCACCCAUGUUUCCACUCGUACCUCCGGAGAAGGCACAAUAA [Ex5 #76] (Eterna round: R97, puzzle: Exclusion 5)",–,–,–,–,37.6 nM,56.2 nM
"AAAAGCCUAGGAUAUACUUGAGGAUCACCCAAGUAGGGUCCCAUGGACCCGUCCUCGUGUAGAAGGAGGAAAAG [Dierlabe] (Eterna round: R97, puzzle: Exclusion 3)",–,–,–,–,156 nM,60.5 nM
"AAAAGCGUCACAGGAUAUUCAGGCGACGCCAAAGAAGAAGGGUGAGGCACAAACAUGAGGAUCACCCAUGUGGUCCUCUCCCGA [Vebiquti] (Eterna round: R96, puzzle: Exclusion NG 1)",–,–,–,11 nM,19.2 nM,15.6 nM
"AAAAGGCAGGGAGGAUAUGCUUACCUGGGUCGUCUUCAGACAUGAGGAUCACCCAUGUAGUCGACGCAGAAGGCCCUCAAAGCC [Mat - Exclusion NG 2 - Mod of JL - D60] (Eterna round: R96, puzzle: Exclusion NG 2)",–,–,–,38.9 nM,82.6 nM,54.1 nM
"AAAAGGCAGGGAGGAUAUGCUUGCCUGGGUCGUCUUCAAACAUGAGGAUCACCCAUGUAGUCGACGCAGAAGGCCCUCAAAGCC [Mat - Exclusion NG 2 - Mod of JL - D61] (Eterna round: R96, puzzle: Exclusion NG 2)",–,–,–,12.1 nM,65.2 nM,16.5 nM
AAAAGGUCAGGAUAUCGACGCGGUUGGGAGGCAGGUCCGCGCGAGAAGGGACAUGAGGAUCACCCAUGUUAAAA [Excls4-IV] (puzzle: Exclusion 4),33.5 nM,22.8 nM,26.4 nM,–,–,–
"AAAAGGUGAGGAUAUCCGACGUUGCACUUGAGGAUCACCCAAGUUCCUCGCGUGCUUUUAGGAGAAGGCACAAAAC [Tegezaza] (Eterna round: R97, puzzle: Exclusion 5)",–,–,–,–,77.3 nM,982 nM
"AAAAUAAAGGCAGGAUAUCGGAGGCGCUGGCACCGAGAAGGGCCAGGGUGUCGUCAAAACAUGAGGAUCACCCAUGUGAGUGAC [Maanated] (Eterna round: R96, puzzle: Exclusion NG 1)",–,–,–,12.7 nM,17.6 nM,23 nM
"AAAAUGUGAGGAUAUCCAAUAUAUGACAUGAGGAUCACCCAUGUUUCCACUCGUACCUCCGGAGAAGGCACUAAAA [Ex5 #42] (Eterna round: R97, puzzle: Exclusion 5)",–,–,–,–,21.9 nM,29 nM
"AAACAAGCAACGAGAUCCCACAUGAGGAUCACCCAUGUCAACUGGAGUUUUAAAUCUUUAGGCUCGUUUUAUAACAA [S_tov1_V1.2] (Eterna round: R97, puzzle: Sensor, turn-off variant 1)",–,–,–,–,50.4 nM,56.8 nM

Sequence,apparent KD of MS2 coat protein [1],apparent KD of MS2 coat protein [2],apparent KD of MS2 coat protein [3],apparent KD of MS2 coat protein [4],apparent KD of MS2 coat protein (input ligand: FMN 200 uM),apparent KD of MS2 coat protein (input ligand: none)
"AAACCCUGAGGAUAUACAUAACAACAAAUCCUCACGUGCCAACAUGAGGAUCACCCAUGUAGAAGGCAGGCCAA [Mod R3 Insanara 5 - Jieux - Exclusion 2] (Eterna round: R97, puzzle: Exclusion 2)",–,–,–,–,49.2 nM,15.8 nM
"AAACCCUGAGGAUAUGCAUAACAACAAAGCCUCACGUGCCAACAUGAGGAUCACCCAUGUAGAAGGCAGGCCAA [Mod R3 Insanara 15 - Jieux - Exclusion 2] (Eterna round: R97, puzzle: Exclusion 2)",–,–,–,–,20.7 nM,15.3 nM
"AAACUACUUGGGCUGACACAUGAGGAUCACCCAUGUGGAGGGCAGGAUAUGCCCAUAAAAUUGGCGCAGAAGGGCCCACGUAGA [Tegesousbe] (Eterna round: R96, puzzle: Exclusion NG 3)",–,–,–,6.89 nM,17.1 nM,13.9 nM
"AAACUCUAAGUCAGGAUAUGGCAACGCUAAGGCGACCAGAAGGGACUUGAGGAUCACCCAAGUACCGCUUGUGG [Orardi] (Eterna round: R97, puzzle: Brourd's mod of Exclusion 4)",–,–,–,–,409 nM,42.7 nM
AAACUGUGAGGAUAUGGUGAGUAGUGCCUGAGCGCUGCUCACCAGAAGGCACAUGAGGAUCACCCAUGUAUAAC [Mat - Exclusion 4 - Mod of JL - D5] (puzzle: Exclusion 4),–,22.4 nM,–,–,–,–
"AAAGUGCUGCGAGGAUAUACAUGAGGAUCACCCAUGUGGAUGUCUGAGGCAAAGCCUCAGACAAUGUAGAAGGCGCAGUACUAA [Mat - Exclusion NG 2 - Mod of JL - D56] (Eterna round: R96, puzzle: Exclusion NG 2)",–,–,–,18.2 nM,87.3 nM,27 nM
AAAGUGUGAGGAUAUCCGGGACUGGGCCGGGAGGUUCGGAAGGAGAAGGCACAUGAGGAUCACCCAUGUAACGG [Excls4-X] (puzzle: Exclusion 4),–,46.9 nM,–,–,–,–
"AAAUACGCUGAGGAUAUGCGGCGCACAAAAUAAGCAGAAGGCAGCACUUGAGGAUCACCCAAGUGGCCCGAGAA [Enusrees] (Eterna round: R97, puzzle: Exclusion 6)",–,–,–,–,15.5 nM,8 nM
"AAAUAUCAUGUAGGAUAUGGUAGGCGAACCUUACCAGAAGGACAUGAGGAUCACCCAUGUGCUGAGUUGUCCGUAGACAGCUCU [Ex NG1 #4] (Eterna round: R96, puzzle: Exclusion NG 1)",–,–,–,63.7 nM,74.1 nM,78.7 nM
"AAAUGCAAGCAAAGAUCUUACAUGAGGAUCACCCAUGUGCUCGUCUUAUAAAGUACUAUCACGAAAGUGAUAGUACA [Sensor 3, v1 - 28] (puzzle: Sensor v3, turn-off variant 1)",25.9 nM,90.9 nM,18.1 nM,–,–,–
"AAAUGGGCGUAGGAUAUGAGAUGGUCUAGCAGCUCAGAAGGACGCACAUGAGGAUCACCCAUGUGAUCGGACUA [Celebidi] (Eterna round: R96, puzzle: Exclusion 6)",–,–,–,27.8 nM,281 nM,34.8 nM
AAAUGGGCGUAGGAUAUGAGAUGGUCUAGCAGCUCAGAAGGACGCACAUGAGGAUCACCCAUGUGAUCGGACUA [Celebidi] (puzzle: Exclusion 6),–,29.7 nM,–,–,–,–
"AAAUUACAAGCAAGAUCCUACAUGAGGAUCACCCAUGUGCUCGUCUUAUAAAGUACUAUCACGAAAGUGAUAGUACA [Mat - Sensor v3 - turn-off var 1 - Eli Mod - D58] (puzzle: Sensor v3, turn-off variant 1)",256 nM,304 nM,329 nM,–,–,–
"AAAUUAGCAAGUAGAUCCGACAUGAGGAUCACCCAUGUAAUCUAAUAUUACGCUGCAUGAGAGUGCGCUCGUCUUAG [Sensor-V1 #16] (Eterna round: R97, puzzle: Sensor, turn-off variant 1)",–,–,–,–,211 nM,238 nM
"AAAUUAGCAAGUAGGUCCGACAUGAGGAUCACCCAUGUAAUCUGAAAUUACGCUGCAUGAAAGUGCGCUCGUCUUAG [Sensor-V1 #10] (Eterna round: R97, puzzle: Sensor, turn-off variant 1)",–,–,–,–,111 nM,168 nM
"AAAUUAGCAAGUAGGUCCGACAUGAGGAUCACCCAUGUUAUCUGAAAUAACGCUGCAUGAUUGUGCGCUCGUCUUAG [Sensor-V1 #8] (Eterna round: R97, puzzle: Sensor, turn-off variant 1)",–,–,–,–,69.1 nM,73.1 nM
"AAAUUGGUAGAGGAUAUCGUACAGGAAACGAUGCGAGAAGGCUGCACAUGAGGAUCACCCAUGUUCAGUUGCGA [EX6 #41] (Eterna round: R97, puzzle: Exclusion 6)",–,–,–,–,17.9 nM,17.6 nM
